Data from US20250051460A1 (Boehringer Ingelheim, published 2025).
Where “and” joins values, the source holds several entries; their conditions need not be identical. Identical values can stand only once. Like-named read-outs stand apart in the source and are kept apart here.

B1: TPP-14937 (bispecific antibody, human IgG1, kappa, L234A L235A)
heavy: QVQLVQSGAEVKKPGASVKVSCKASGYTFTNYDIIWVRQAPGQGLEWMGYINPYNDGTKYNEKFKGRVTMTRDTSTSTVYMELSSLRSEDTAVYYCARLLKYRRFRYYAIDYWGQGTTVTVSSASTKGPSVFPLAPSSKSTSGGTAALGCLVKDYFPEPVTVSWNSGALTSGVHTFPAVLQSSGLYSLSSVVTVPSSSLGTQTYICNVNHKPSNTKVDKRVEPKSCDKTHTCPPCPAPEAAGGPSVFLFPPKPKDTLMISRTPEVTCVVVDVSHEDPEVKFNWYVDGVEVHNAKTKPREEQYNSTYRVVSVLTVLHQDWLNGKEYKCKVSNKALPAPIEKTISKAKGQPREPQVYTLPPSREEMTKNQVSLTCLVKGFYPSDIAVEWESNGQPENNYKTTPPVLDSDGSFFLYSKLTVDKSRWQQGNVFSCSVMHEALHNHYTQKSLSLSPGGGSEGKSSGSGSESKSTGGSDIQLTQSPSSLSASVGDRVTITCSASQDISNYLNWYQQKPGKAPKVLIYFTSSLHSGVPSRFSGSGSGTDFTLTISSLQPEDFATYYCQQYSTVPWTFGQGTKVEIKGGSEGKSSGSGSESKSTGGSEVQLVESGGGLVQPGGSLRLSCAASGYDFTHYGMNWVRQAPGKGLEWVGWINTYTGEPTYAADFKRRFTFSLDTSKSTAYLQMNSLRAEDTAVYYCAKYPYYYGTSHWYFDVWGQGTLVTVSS
light: DIQMTQSPSSLSASVGDRVTITCRTSENVYSNLAWYQQKPGKAPKLLIYAASNLQSGVPSRFSGSGSGTDYTFTISSLQPEDIATYYCQHFWGSPFTFGQGTKLEIKRTVAAPSVFIFPPSDEQLKSGTASVVCLLNNFYPREAKVQWKVDNALQSGNSQESVTEQDSKDSTYSLSSTLTLSKADYEKHKVYACEVTHQGLSSPVTKSFNRGEC
B2: TPP-11736 (bispecific antibody, human IgG1, kappa, L234A L235A)
heavy: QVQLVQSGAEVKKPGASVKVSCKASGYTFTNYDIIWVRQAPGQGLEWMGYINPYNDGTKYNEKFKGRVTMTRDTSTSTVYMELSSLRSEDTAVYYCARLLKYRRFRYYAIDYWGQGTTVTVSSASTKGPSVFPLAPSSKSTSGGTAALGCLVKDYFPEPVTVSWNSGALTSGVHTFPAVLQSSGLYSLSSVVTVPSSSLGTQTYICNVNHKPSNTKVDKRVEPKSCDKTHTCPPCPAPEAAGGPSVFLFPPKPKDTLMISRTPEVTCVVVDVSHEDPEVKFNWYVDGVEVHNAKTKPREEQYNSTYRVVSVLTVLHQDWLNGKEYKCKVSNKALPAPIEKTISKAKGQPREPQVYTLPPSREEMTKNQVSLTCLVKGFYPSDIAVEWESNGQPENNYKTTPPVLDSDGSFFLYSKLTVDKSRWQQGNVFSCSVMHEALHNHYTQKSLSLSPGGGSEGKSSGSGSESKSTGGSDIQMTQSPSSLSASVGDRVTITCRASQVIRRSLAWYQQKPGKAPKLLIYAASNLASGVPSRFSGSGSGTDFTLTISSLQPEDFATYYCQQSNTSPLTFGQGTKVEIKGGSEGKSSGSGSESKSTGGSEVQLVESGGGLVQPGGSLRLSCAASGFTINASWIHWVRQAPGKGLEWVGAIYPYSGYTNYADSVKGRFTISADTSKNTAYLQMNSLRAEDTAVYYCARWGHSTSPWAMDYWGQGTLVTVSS
light: B1 light
B3: TPP-11738 (bispecific antibody, human IgG1, kappa, L234A L235A)
heavy: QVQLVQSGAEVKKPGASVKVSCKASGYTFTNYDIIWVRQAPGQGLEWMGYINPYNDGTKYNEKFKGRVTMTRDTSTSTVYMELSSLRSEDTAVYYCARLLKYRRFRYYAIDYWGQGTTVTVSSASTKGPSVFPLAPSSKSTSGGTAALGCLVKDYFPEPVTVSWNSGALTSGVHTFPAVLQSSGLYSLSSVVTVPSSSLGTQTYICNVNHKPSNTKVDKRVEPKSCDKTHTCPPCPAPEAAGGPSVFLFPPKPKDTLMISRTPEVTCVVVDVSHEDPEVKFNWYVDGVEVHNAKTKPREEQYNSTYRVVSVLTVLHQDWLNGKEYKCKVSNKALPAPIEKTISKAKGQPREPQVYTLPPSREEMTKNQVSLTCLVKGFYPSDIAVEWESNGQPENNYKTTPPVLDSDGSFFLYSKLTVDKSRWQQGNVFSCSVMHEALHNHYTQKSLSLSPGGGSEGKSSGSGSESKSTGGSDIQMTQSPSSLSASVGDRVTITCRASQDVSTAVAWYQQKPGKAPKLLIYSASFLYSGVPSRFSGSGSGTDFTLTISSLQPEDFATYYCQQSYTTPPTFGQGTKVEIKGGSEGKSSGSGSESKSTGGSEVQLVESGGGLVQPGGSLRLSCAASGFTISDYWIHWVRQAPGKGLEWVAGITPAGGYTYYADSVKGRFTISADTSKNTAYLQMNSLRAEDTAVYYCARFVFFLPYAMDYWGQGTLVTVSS
light: B1 light
B4: TPP-14936 (bispecific antibody, human IgG1, kappa, L234A L235A)
heavy: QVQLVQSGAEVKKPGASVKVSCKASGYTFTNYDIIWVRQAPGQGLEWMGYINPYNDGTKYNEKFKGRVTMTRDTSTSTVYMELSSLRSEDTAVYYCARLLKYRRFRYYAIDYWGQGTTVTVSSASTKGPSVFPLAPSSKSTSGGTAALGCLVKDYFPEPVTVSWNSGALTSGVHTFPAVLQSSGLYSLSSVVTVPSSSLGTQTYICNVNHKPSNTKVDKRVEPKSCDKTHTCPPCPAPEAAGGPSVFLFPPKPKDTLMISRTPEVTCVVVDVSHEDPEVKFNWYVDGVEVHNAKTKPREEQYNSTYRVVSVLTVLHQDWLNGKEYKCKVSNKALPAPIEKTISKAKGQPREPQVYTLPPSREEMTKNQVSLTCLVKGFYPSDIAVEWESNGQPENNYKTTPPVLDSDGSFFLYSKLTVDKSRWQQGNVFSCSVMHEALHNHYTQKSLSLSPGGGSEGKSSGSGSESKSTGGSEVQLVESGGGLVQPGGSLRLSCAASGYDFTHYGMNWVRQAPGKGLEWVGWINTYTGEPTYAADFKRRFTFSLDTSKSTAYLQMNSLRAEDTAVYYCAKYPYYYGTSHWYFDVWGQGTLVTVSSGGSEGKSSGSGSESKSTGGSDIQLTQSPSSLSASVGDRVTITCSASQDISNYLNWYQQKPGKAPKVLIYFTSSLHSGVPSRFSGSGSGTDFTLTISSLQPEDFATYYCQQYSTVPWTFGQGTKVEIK
light: B1 light
B5: TPP-14938 (bispecific antibody, human IgG1, kappa, L234A L235A)
heavy: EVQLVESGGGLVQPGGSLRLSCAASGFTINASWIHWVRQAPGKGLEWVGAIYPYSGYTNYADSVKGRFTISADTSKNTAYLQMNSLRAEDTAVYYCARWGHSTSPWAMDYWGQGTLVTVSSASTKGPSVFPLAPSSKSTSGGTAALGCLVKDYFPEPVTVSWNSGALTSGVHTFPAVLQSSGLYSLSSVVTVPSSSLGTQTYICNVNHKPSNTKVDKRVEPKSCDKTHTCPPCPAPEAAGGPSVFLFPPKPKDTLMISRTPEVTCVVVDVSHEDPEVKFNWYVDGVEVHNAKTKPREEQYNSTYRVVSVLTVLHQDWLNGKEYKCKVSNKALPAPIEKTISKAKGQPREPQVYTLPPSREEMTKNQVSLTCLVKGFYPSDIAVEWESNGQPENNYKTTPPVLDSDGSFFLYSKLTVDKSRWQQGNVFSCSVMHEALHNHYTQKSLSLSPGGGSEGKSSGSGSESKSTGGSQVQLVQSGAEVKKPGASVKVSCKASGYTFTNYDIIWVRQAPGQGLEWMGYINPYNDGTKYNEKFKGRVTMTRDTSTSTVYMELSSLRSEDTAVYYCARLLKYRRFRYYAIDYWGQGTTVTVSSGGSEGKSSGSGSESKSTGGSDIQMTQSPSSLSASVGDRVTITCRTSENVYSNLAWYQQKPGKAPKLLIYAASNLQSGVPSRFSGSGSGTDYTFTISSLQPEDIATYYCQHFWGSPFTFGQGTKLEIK
light: DIQMTQSPSSLSASVGDRVTITCRASQVIRRSLAWYQQKPGKAPKLLIYAASNLASGVPSRFSGSGSGTDFTLTISSLQPEDFATYYCQQSNTSPLTFGQGTKVEIKRTVAAPSVFIFPPSDEQLKSGTASVVCLLNNFYPREAKVQWKVDNALQSGNSQESVTEQDSKDSTYSLSSTLTLSKADYEKHKVYACEVTHQGLSSPVTKSFNRGEC
B6: TPP-14939 (bispecific antibody, human IgG1, kappa, L234A L235A)
heavy: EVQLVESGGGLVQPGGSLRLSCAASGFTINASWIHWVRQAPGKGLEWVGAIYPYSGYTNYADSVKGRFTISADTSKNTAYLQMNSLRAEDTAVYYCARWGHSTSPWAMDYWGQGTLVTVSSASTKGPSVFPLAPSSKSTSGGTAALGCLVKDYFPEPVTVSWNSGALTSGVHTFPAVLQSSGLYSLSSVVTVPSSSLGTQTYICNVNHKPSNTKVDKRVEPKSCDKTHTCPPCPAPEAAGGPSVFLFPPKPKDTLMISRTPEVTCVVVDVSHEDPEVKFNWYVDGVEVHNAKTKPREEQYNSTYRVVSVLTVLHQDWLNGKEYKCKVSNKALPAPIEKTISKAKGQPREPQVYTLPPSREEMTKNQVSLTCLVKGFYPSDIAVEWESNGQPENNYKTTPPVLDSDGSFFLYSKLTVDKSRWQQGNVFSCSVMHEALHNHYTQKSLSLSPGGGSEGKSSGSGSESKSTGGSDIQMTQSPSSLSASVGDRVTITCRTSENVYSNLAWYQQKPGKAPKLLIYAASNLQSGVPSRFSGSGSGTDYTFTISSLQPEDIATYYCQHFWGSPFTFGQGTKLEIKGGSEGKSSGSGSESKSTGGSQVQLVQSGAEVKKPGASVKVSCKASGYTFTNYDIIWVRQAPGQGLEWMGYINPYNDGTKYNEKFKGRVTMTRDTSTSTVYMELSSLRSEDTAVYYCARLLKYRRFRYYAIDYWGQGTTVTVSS
light: B5 light

Tests used:
Test in all cases: cell-based or functional assay
[1] = molecular target: T1, human VEGF-A (human, UniProt P15692-4 27-191)
T1 sequence (P15692 other isoform, or with tags, fused parts or gaps limits assumed): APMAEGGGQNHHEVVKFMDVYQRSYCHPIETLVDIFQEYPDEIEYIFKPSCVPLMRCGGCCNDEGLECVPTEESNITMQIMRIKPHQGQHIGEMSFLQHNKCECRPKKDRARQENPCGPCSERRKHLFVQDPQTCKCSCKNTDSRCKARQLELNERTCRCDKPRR

[2] = molecular target: T1, human VEGF-A; remark: listed apart in the source
[3] = molecular target: T1, human VEGF-A; remark: listed apart in the source
[4] = molecular target: T1, human VEGF-A; remark: listed apart in the source
[5] = molecular target: T1, human VEGF-A; remark: listed apart in the source
[6] = molecular target: T1, human VEGF-A; remark: listed apart in the source

Binder	Bottom plateau (ERK1/2 phosphorylation, counts) [1] [counts]	Bottom plateau (Src phosphorylation, counts) [1] [counts]	IC50 (ERK1/2 phosphorylation) [1] [nM]	IC50 (Src phosphorylation) [1] [nM]	concentration for full inhibition of VEGF-induced HRMEC proliferation [2] [nM]	Bottom plateau (ERK1/2 phosphorylation, counts) [3] [counts]	Bottom plateau (Src phosphorylation, counts) [3] [counts]	IC50 (ERK1/2 phosphorylation) [3] [nM]	IC50 (Src phosphorylation) [3] [nM]	Bottom plateau (ERK1/2 phosphorylation, counts) [4] [counts]	Bottom plateau (Src phosphorylation, counts) [4] [counts]	IC50 (ERK1/2 phosphorylation) [4] [nM]	IC50 (Src phosphorylation) [4] [nM]	Bottom plateau (ERK1/2 phosphorylation, counts) [5] [counts]	Bottom plateau (Src phosphorylation, counts) [5] [counts]	IC50 (ERK1/2 phosphorylation) [5] [nM]	IC50 (Src phosphorylation) [5] [nM]	IC50 (ERK1/2 phosphorylation) [2]	other results
B1	-927	4570	5.6	5.8	4	-926	4570	5.58	5.83										
B2	3690	6300	5.6	4		3690	6300	5.59	3.97	3690	6300	5.59	3.97	3690	6300	5.59	3.97	~4 nM and ~10 nM	IC50 (ERK1/2 phosphorylation) [6]: 9.1 nM; IC50 (p38 MAPK phosphorylation) [6]: 7.7 nM; IC50 (p38 MAPK phosphorylation) [2]: ~7.4 nM
B3																		~4 nM and ~10 nM	
B4	-341	4650	3.5	3.4	1	-340	4650	3.49	3.4										
B5										1330	5480	2.71	1.8	1330	5480	2.71	1.8		
B6										1140	5540	2.51	1.16	1140	5540	2.51	1.16		
